# B1: mutant half site DNA (single molecule) (dsDNA)
# DNA 1: CGCGTTCATGGTAGAGTCGTGGACTAGAGCGAACATGTCTTTCAAAGGCGGCGTCG
# DNA 2: GACGCCGCCTTTGAAAGACATGTTCGCTCTA
# B2: random DNA (EMSA) (dsDNA)
# DNA 1: CGTTCCTAATCGGGTAGGGGCTGACACGAATA
# DNA 2: TATTCGTGTCAGCCCCTACCCGATTAGGAACG
# B3: wild type DNA (EMSA) (dsDNA)
# DNA 1: TAGAGCGAACATGTCTAAGCATGCTGGCGTCG
# DNA 2: CGACGCCAGCATGCTTAGACATGTTCGCTCTA
# Legend:
# [1] = target: T1, AF647-p53 (p53-SNAP labeled with AF647) (human, UniProt P04637 1-393); experiment: single-molecule TIRF; apparent upper limit (<=), koff 1.0 s-1, kon(obs) 0.0188 s-1; EMSA: 25 mM HEPES pH 7.9, 50 mM KCl, 2.5 mM MgCl2, 1 mM EDTA, 10% glycerol, 0.1% NP-40, 1 mM DTT, 0.05 mg/mL BSA, room temp 30 min; TIRF: 25 mM Tris pH 7.9, 50; conditions: protein: recombinant; tags: N-terminal His; C-terminal SNAP tag with AlexaFluor647; chain copies: 4; label: 5' biotin on forward strand; 5' AF647 on reverse strand; 5' overhang 24 nt and 3' overhang 1 nt on forward strand as printed
# T1 sequence (P04637 whole entry): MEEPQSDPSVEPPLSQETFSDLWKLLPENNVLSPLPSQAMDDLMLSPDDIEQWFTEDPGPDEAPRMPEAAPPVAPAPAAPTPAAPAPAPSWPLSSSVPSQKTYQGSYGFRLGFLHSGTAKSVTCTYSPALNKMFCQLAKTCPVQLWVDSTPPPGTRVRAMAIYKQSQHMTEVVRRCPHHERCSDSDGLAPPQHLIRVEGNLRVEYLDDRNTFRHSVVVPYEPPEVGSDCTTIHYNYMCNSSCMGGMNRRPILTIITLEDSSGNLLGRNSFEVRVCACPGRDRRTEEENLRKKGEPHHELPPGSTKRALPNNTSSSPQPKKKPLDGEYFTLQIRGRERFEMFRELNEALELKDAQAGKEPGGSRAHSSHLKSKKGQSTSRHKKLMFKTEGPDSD
# [2] = target: T1, AF647-p53 (p53-SNAP labeled with AF647); experiment: EMSA; complexes at low nM tetramer; EMSA: 25 mM HEPES pH 7.9, 50 mM KCl, 2.5 mM MgCl2, 1 mM EDTA, 10% glycerol, 0.1% NP-40, 1 mM DTT, 0.05 mg/mL BSA, room temp 30 min; TIRF: 25 mM Tris pH 7.9, 50; conditions: protein: recombinant; tags: N-terminal His; C-terminal SNAP tag with AlexaFluor647; chain copies: 4; label: 5' 32P on reverse strand; blunt
# [3] = target: T1, AF647-p53 (p53-SNAP labeled with AF647); experiment: EMSA; sub-nM affinity, assuming tetramer; EMSA: 25 mM HEPES pH 7.9, 50 mM KCl, 2.5 mM MgCl2, 1 mM EDTA, 10% glycerol, 0.1% NP-40, 1 mM DTT, 0.05 mg/mL BSA, room temp 30 min; TIRF: 25 mM Tris pH 7.9, 50; conditions: protein: recombinant; tags: N-terminal His; C-terminal SNAP tag with AlexaFluor647; chain copies: 4; label: 5' 32P on reverse strand; blunt
binder,measurement,setting,value
B1,Kd,[1],< 13 nM
B2,binding result,[2],binds
B3,Kd,[3],< 1 nM

# — article PMC7528078, “Single molecule studies reveal that p53 tetramers dynamically bind response elements containing one or two half sites”
